Source: publication PMC3913756, “Mycobacterium tuberculosis Cyclophilin A Uses Novel Signal Sequence for Secretion and Mimics Eukaryotic Cyclophilins for Interaction with Host Protein Repertoire” (PLoS ONE, 2014)

Molecular target: T1, His6-tagged M. tuberculosis PpiA (cyclophilin A) (Mycobacterium tuberculosis H37Rv, UniProt P9WHW3 1-182)
T1 construct: also called Rv0009; MTBPPIA
Assay: native gel or EMSA
Settings: both partners purified

B1: purified M. tuberculosis Ef-Tu (Tuf) (natural protein)
chain: not shown
binding result: binds
